Common to all, as to type: biochemical
Experiment [1] is described as follows: UGT enzyme assay with crude E. coli lysates, UDP-Glc as sugar donor. Conditions: crude lysate, substrates OA, CBGA, heliCBGA, FIG. 8. As to the method: Selected UGT genes from Helichrysum were individually cloned into the pET28b vector and expressed in E. coli BL21 (DE3) cells. Bacterial starters were grown overnight in LB medium at 37° C., diluted in fresh LB 1:100, and re-incubated at 37° C. When cultures reached A600=0.6, protein expression was induced with 400 μM of isopropyl-1-thio-β-d-galactopyranoside (IPTG) overnight at 15° C. Bacterial cells were lysed by sonication in 50 mM Tris-HCl pH 8, 0.5 mM phenylmethylsulfonyl fluoride (PMSF, Sigma Aldrich) solution in isopropanol, 10% glycerol and protease inhibitor cocktail (Sigma Aldrich), and 1 mg ml-1 lysozyme (Sigma Aldrich). […] Protein concentration of the eluted fractions was measured with Pierce™ 660 nm protein assay reagent (Thermo Scientific).
Recombinant UGT assays using different aromatic substrates were performed by mixing 1.5 μl of the UDP solution (80 mM, final concentration: 2.5 mM), 27.5 μl Tris buffer (100 mM), 1 μl of each of the substrates (50 mM, final concentration: 1 mM) and 20 μl of the lysate enzyme solution. […] To stop the reactions, 100 μl methanol was added to each tube, and the compounds were extracted and analyzed as previously described. […] […]

The nature of experiment [2]: In vitro assays with purified UGTs and an array of cannabinoid substrates. Conditions: purified enzymes. As to the method:
Selected UGT genes from Helichrysum were individually cloned into the pET28b vector and expressed in E. coli BL21 (DE3) cells. Bacterial starters were grown overnight in LB medium at 37° C., diluted in fresh LB 1:100, and re-incubated at 37° C. When cultures reached A600=0.6, protein expression was induced with 400 μM of isopropyl-1-thio-β-d-galactopyranoside (IPTG) overnight at 15° C. Bacterial cells were lysed by sonication in 50 mM Tris-HCl pH 8, 0.5 mM phenylmethylsulfonyl fluoride (PMSF, Sigma Aldrich) solution in isopropanol, 10% glycerol and protease inhibitor cocktail (Sigma Aldrich), and 1 mg ml-1 lysozyme (Sigma Aldrich). The whole-cell extract was either kept for functional activity or used for protein purification. Purification of proteins was performed on Ni-NTA agarose beads (Adar Biotech). The proteins were eluted with 200 mM imidazole (Fluka) in buffer containing 50 mM NaH2PO4, pH 8 and 0.5 M NaCl. Protein concentration of the eluted fractions was measured with Pierce™ 660 nm protein assay reagent (Thermo Scientific).
Recombinant UGT assays using different aromatic substrates were performed by mixing 1.5 μl of the UDP solution (80 mM, final concentration: 2.5 mM), 27.5 μl Tris buffer (100 mM), 1 μl of each of the substrates (50 mM, final concentration: 1 mM) and 20 μl of the lysate enzyme solution. The reactions were incubated at 30° C. for 1 h. To stop the reactions, 50 μl methanol were added to each tube, vortexed for 10 s, centrifuged at maximum speed for 10 min, and then the supernatant was recovered and used for UPLC-qTOF analysis. The assay with the purified UGTs was performed by mixing 2 μl of the cannabinoid acceptors (OA, DHSA, CBGA, heliCBGA, CBDA, A9-THCA, CBCA, olivetol, CBG, CBD or 49-THC, hexanoylphloroglucinol, naringenin chalcone or pinocembrin chalcone) in the presence of 1.5 μl UDP 80 mM, 46.5 μl Tris buffer (100 mM, pH 8.0) and 1 μl of each enzyme. To stop the reactions, 100 μl methanol was added to each tube, and the compounds were extracted and analyzed as previously described. Kinetics assays were performed with the purified enzymes (1.5 μg/μl) dissolved in 45 μl Tris buffer (100 mM, pH 8.0) and substrates were added using varying (0.5 μM-3 mM) and constant (1 mM) concentrations of OA and UDP and the total reaction volume was 50 μl. To stop the reactions, 100 μl methanol was added to each tube, and the compounds were extracted and analyzed as previously described.
Next, the inventors recombinantly expressed eleven of the thirteen UGTs from Helichrysum in E. coli and used the crude lysate to examine the activity of the proteins using OA, CBGA, and heliCBGA in a reaction including UDP-Glc as the sugar donor. […] The inventors screened the LC/HRMS chromatograms for glucosylated and diglucosylated products according to the theoretical m/z values. […] All the enzymes were active with varying substrate specificity and products produced.

The nature of experiment [3]: Steady state kinetics assays of purified UGTs with OA and UDP. Conditions: OA 0.5 μM-3 mM varying, UDP 1 mM constant; compared HuUGT11, HuUGT13, OsUGT, SrUGT; FIG. 12. As to the method: FIGS. 12A-12B include curves and a table showing comparison of steady state kinetic analysis of HuUGT11 and HuUGT13 versus OsUGT and SrUGT, with olivetolic acid and UDP-glc. (12A) The Michaelis-Menten Km value of each enzyme was calculated using varying (0.5 μM-3 mM) and constant (1 mM) concentrations of olivetolic acid and […] (n=3 technically independent samples; measurements were plotted individually). Since there was no analytical standard available for Glc-OA, V0 was calculated using the calibration curve of OA. (12B) A summary of the results presented in 12A. V0 and Vmax were calculated using the calibration curve of OA since there was no analytical standard available for Glc-OA.
Recombinant UGT assays using different aromatic substrates were performed by mixing 1.5 μl of the UDP solution (80 mM, final concentration: 2.5 mM), 27.5 μl Tris buffer (100 mM), 1 μl of each of the substrates (50 mM, final concentration: 1 mM) and 20 μl of the lysate enzyme solution. The reactions were incubated at 30° C. for 1 h. […] To stop the reactions, 100 μl methanol was added to each tube, and the compounds were extracted and analyzed as previously described. […] To stop the reactions, 100 μl methanol was added to each tube, and the compounds were extracted and analyzed as previously described.

B1: HuUGT11: UDP-glycosyltransferase from Helichrysum umbraculigerum, recombinantly expressed in E. coli (protein, listed as Helichrysum umbraculigerum)
chain: MGSLKKGAHILIFPFPAQGHMLPLLDLTHHLATNGLTITILVTPKNLPILNPLLSSSPNIQPLVFPFPPHPRLPPHVENVKDIGNHANVPITNSLAKLQDQIIQWFNSHHNPPVAIISDFFLGWTQHLANKLGIPRVGFFSSGAYLTAVLDYVCHNIKTVRSQEETVFHDLPNSPCFKFEHLPGLAQIYKESDPEWELVLDGHIANGLSWGWIVNTFDGLESRYMEYLTKKMGVGRVFGVGPVNLLNGSDPMTRGKSESGSDSGVLNWLDGKPDGSVLYVCFGSQKFLTNDQMEGLSIGLEQSGVHYVWVVKDEQGDAIRSGSGRGLVVTGWAPQVSILGHGAVGGFLSHCGWNSVLEAIVNGVMILAWPMEADQFVNAKLLVDDHGIGVWVCEGPNTVPDSTELARKIGESMSTDKSEKVKAKEMKNKANEAVKEGGSSSMELSRLVKELSNFETNGP
For the molecule B1, the “activity of lysates containing HuUGTs on the different substrates” value in experiment [1] is on record as “showed activity”. In experiment [2], the “activity on the cannabinoid intermediates” value was “highly active” and the “activity on the prenylated compounds” value was “almost inactive”. Further, in experiment [3], the “catalytic performance in kinetics assays versus the other enzymes” value is recorded as “impressive catalytic advantage”.

B2: HuUGT13: UDP-glycosyltransferase from Helichrysum umbraculigerum, recombinantly expressed in E. coli (protein, listed as Helichrysum umbraculigerum)
chain: MSLVTNNPHLLVYPLPTSGHIIPLLDLTDLLLRRGLTITVVISTTDLTLLDTLLSSHPTSLHKLYFPDPEIGPSSHPVIARIIATQKLFDPIVKWFESHPSPPVAIISDFFLGWTNELASRLGIRRVVFSPSGALGHSILQSLWRDVAEINAKNVDGNGNYSISFTDIPNSPEFHWWQLSQLLRVHREGDPDFEFFRNGMLANTKSWGIVYNTFERIEKVYIDHVKKQIGHDRVWAIGPLLPEEHGPVGSTARGGSSVVPPHDLLTWLDKKPHDSVVYICFGSRLTLSEKQMSALASALELSNVDFILCVKASGSSFIPSGFEDRVVGRGFVIKGWAPQLAILRHRAVGSFVTHCGWNSTLEGVSSGVMMLTWPMGADQYANAKLLVDQLGVGKRVCEGGPESVPDSTELARLLEESLSGDTSERVKVKELSREANTAVKEGTSIRDLNMFVNLLSEL
Turning to B2, the “activity of lysates containing HuUGTs on the different substrates” value in experiment [1] is “showed activity”. Also, in experiment [2], the “activity on the cannabinoid intermediates” value is on record as “highly active” and the “activity on the prenylated compounds” value is “almost inactive”.

B3: HuUGT6: UDP-glycosyltransferase from Helichrysum umbraculigerum, recombinantly expressed in E. coli (protein, listed as Helichrysum umbraculigerum)
chain: MTQKQMQMQPHFLLVTYPAQGHINPSLQFAERLIRLGVKVTFTTTVSAYRRMSKAGNISEFLNFAAFSDGFDDGFNFETDDHGLFLTQLRSRGKDSLKETILSNAKNGTPISCLVYTLLLPWAPEVARGLNVPSAFLWIQPASVLRLYYYYFNGYNELIGDDCNEPSWSIQLPGLPLLKS
With B3, in experiment [2] (UDP-glc, FIG. 11), the “diglucosylation of acid compounds” value was “only observed in case of HuUGT6”.

The values are drawn from patent US20250207145A1, “URIDINE DIPHOSPHATE-GLYCOSYLTRANSFERASE AND A […], TISSUE, AND ORGANISM COMPRISING SAME” (YEDA RESEARCH AND DEVELOPMENT CO. LTD., priority 2022, published 2025).
